{"source": "paper doi:10.1101/804138", "key": {"[1]": {"target": "His6-GapR1-69 (truncated protein lacking the entire Helix 3) (Caulobacter crescentus)", "assay": "SEC + cross-linking"}, "[2]": {"target": "His6-GapR1-76 (truncated protein lacking only the hydrophobic patch of Helix 3) (Caulobacter crescentus)", "assay": "SEC + cross-linking"}, "[3]": {"target": "His6-GapR1-89 (full-length WT GapR), purified (Caulobacter crescentus)", "assay": "SEC + cross-linking"}, "[4]": {"target": "untagged GapR1-89 (Caulobacter crescentus)"}}, "data": [{"substance": "His6-GapR1-69 (truncated protein lacking the entire Helix 3) (domain or fragment)", "values": [{"measurement": "stoichiometry N", "setting": "[1]", "value": 2}]}, {"substance": "His6-GapR1-76 (truncated protein lacking only the hydrophobic patch of Helix 3) (domain or fragment)", "values": [{"measurement": "stoichiometry N", "setting": "[2]", "value": 2}]}, {"substance": "His6-GapR1-89 (full-length WT GapR), purified (natural protein)", "values": [{"measurement": "stoichiometry N", "setting": "[3]", "value": 4}]}, {"substance": "untagged GapR1-89 (natural protein)", "values": [{"measurement": "stoichiometry N", "setting": "[4]", "value": 4}]}]}
